Tests used:
Conditions in all cases: protein: recombinant; tags: SBP tag (N-terminal); GST removed by PreScission
[1] = target: T1, MSI1 (Musashi1) (UniProt Q61474 1-362); assay: EMSA; mean of 2 gel shifts; EMSA buffer not given; RBNS: 25 mM Tris pH 7.5, 150 mM KCl, 3 mM MgCl2, 0.01% Tween, 1 mg/ml BSA, 1 mM DTT, 30 ug/ml poly I/C, room temperature
[2] = target: T1, MSI1 (Musashi1); assay: EMSA; no binding detected, Kd cannot be estimated; EMSA buffer not given; RBNS: 25 mM Tris pH 7.5, 150 mM KCl, 3 mM MgCl2, 0.01% Tween, 1 mg/ml BSA, 1 mM DTT, 30 ug/ml poly I/C, room temperature
[3] = target: T1, MSI1 (Musashi1); assay: EMSA; EMSA buffer not given; RBNS: 25 mM Tris pH 7.5, 150 mM KCl, 3 mM MgCl2, 0.01% Tween, 1 mg/ml BSA, 1 mM DTT, 30 ug/ml poly I/C, room temperature

T1 sequence (Q61474 whole entry): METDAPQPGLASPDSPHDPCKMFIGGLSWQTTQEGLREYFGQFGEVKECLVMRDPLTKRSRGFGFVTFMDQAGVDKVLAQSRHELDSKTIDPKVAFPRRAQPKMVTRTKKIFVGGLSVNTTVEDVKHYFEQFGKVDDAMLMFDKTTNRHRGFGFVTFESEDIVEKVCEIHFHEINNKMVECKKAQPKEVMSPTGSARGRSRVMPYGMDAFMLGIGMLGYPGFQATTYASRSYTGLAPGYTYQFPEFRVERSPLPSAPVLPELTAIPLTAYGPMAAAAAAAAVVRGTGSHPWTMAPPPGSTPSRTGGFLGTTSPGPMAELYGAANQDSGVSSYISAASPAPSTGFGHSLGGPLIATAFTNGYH

Binder | Kd [1] [nM] | further results
UGUCCAGUUAGAUCACUGUUUAGAU (ssRNA) [Jag1 3' UTR region 1] | 15 | 
UGUCCAGUUCCAUCACUGUUUCCAU (ssRNA) [Jag1 3' UTR region 1 mutant] |  | binding result [2]: no binding
UCAAAGUAGAAUUUUUGUAUAGUUAUGUAAAUAAU (ssRNA) [Jag1 3' UTR region 2] | 9 | 
UCAAAGUCCAAUUUUUGUAUCCUUAUGUAAAUAAU (ssRNA) [Jag1 3' UTR region 2 mutant] |  | Kd [3]: 649 nM
